According to the supplement of paper PMC9112550, “Optimization of the antimicrobial peptide Bac7 by deep mutational scanning” (BMC Biology, 2022):

tested on: Escherichia coli TOP10; assay: shrunken log2 fold change of peptide-encoding DNA abundance (4.5 h post-induction vs induction); higher = less antimicrobial activity (less host growth inhibition); conditions: time post-induction: 4.5 h; library: site-saturation at positions 5, 18, 19, 20
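Also: peptides expressed intracellularly from a pBAD plasmid library in pooled LB shake-flask culture, induced with 0.3% L-arabinose, DNA abundance read by NGS, three biological replicates, DESeq2 with apeglm shrinkage.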

Point of comparison: RRIRARPPRLPRPRPRPSEAPRP, “shrunken log2 fold change” value 0.52. Against it:
- RRIRQRPPRLPRPRPRPIHVPRP — lower, -0.15
- RRIRQRPPRLPRPRPRPMKAPRP — lower, 0.181
- RRIRDRPPRLPRPRPRPKRAPRP — lower, -0.0273
- RRIRLRPPRLPRPRPRPRVLPRP — lower, -0.132
- RRIRMRPPRLPRPRPRPCSVPRP — lower, -0.0402
- RRIRDRPPRLPRPRPRPPGNPRP — lower, 0.21
- RRIRMRPPRLPRPRPRPLQTPRP — higher, 3.06
- RRIRHRPPRLPRPRPRPDNNPRP — lower, -0.453
- RRIRRRPPRLPRPRPRPHIPPRP — lower, -0.126
- RRIRNRPPRLPRPRPRPERMPRP — lower, -0.0351
- RRIRKRPPRLPRPRPRPLYQPRP — lower, -0.187
- RRIRTRPPRLPRPRPRPGDFPRP — lower, -0.093
- RRIRCRPPRLPRPRPRPGCFPRP — lower, 0.0804
- RRIRHRPPRLPRPRPRPYPDPRP — lower, 0.0372
- RRIRVRPPRLPRPRPRPPYHPRP — lower, -0.284
- RRIRTRPPRLPRPRPRPLDLPRP — lower, 0.0209
- RRIRMRPPRLPRPRPRPIYEPRP — lower, -0.0231
- RRIRRRPPRLPRPRPRPLNMPRP — lower, -0.126
- RRIRLRPPRLPRPRPRPDSLPRP — lower, -0.335
- RRIRARPPRLPRPRPRPNHAPRP — lower, 0.209
- RRIRRRPPRLPRPRPRPGNNPRP — lower, -0.365
- RRIRVRPPRLPRPRPRPPFEPRP — lower, 0.26
- RRIRHRPPRLPRPRPRPMYYPRP — lower, -0.681
- RRIRCRPPRLPRPRPRPSCVPRP — lower, -0.0959
- RRIRGRPPRLPRPRPRPGTCPRP — lower, 0.165
- RRIRYRPPRLPRPRPRPIPIPRP — lower, -0.168
- RRIRKRPPRLPRPRPRPATWPRP — within 0.2 log units, 0.573
- RRIRRRPPRLPRPRPRPFSWPRP — lower, -0.469
- RRIRARPPRLPRPRPRPALPPRP — lower, 0.309
- RRIRIRPPRLPRPRPRPRMYPRP — lower, -0.33
- RRIRARPPRLPRPRPRPCCHPRP — lower, -0.454
- RRIRPRPPRLPRPRPRPCWNPRP — lower, -0.0418
- RRIRCRPPRLPRPRPRPWFEPRP — lower, -0.45
- RRIRSRPPRLPRPRPRPGVTPRP — lower, 0.0674
- RRIRQRPPRLPRPRPRPIVDPRP — lower, 0.0252
- RRIRMRPPRLPRPRPRPQFDPRP — lower, -0.0694
- RRIRGRPPRLPRPRPRPDLWPRP — higher, 1.79
- RRIRKRPPRLPRPRPRPARPPRP — within 0.2 log units, 0.575
- RRIRIRPPRLPRPRPRPMHNPRP — lower, -0.332
- RRIRIRPPRLPRPRPRPMCKPRP — lower, -0.262
- RRIRVRPPRLPRPRPRPEEWPRP — lower, 0.015
- RRIRTRPPRLPRPRPRPYTPPRP — lower, -0.34
- RRIRCRPPRLPRPRPRPLQRPRP — lower, 0.203
- RRIRTRPPRLPRPRPRPFCDPRP — lower, -0.268
- RRIRNRPPRLPRPRPRPPGQPRP — lower, 0.0465
- RRIRSRPPRLPRPRPRPLCWPRP — lower, 0.131
- RRIRERPPRLPRPRPRPDCAPRP — lower, 0.115
- RRIRKRPPRLPRPRPRPKLDPRP — within 0.2 log units, 0.707
- RRIRNRPPRLPRPRPRPKDDPRP — lower, 0.0456
- RRIRTRPPRLPRPRPRPELHPRP — within 0.2 log units, 0.396
- RRIRGRPPRLPRPRPRPNMVPRP — lower, -0.00462
- RRIRYRPPRLPRPRPRPWATPRP — lower, -0.379
- RRIRMRPPRLPRPRPRPSDFPRP — lower, -0.764
- RRIRERPPRLPRPRPRPWAYPRP — lower, -0.552
- RRIRDRPPRLPRPRPRPDTTPRP — within 0.2 log units, 0.345
- RRIRRRPPRLPRPRPRPGEWPRP — within 0.2 log units, 0.701
- RRIRPRPPRLPRPRPRPCFLPRP — lower, -0.382
- RRIRSRPPRLPRPRPRPFNMPRP — lower, -0.907
- RRIRMRPPRLPRPRPRPSQWPRP — lower, 0.0206
- RRIRHRPPRLPRPRPRPPGYPRP — lower, 0.0632
- RRIRERPPRLPRPRPRPIVKPRP — lower, -0.0406
- RRIRTRPPRLPRPRPRPYVHPRP — lower, -0.75
- RRIRARPPRLPRPRPRPFACPRP — higher, 0.829
- RRIRNRPPRLPRPRPRPYVQPRP — lower, -0.0341
- RRIRVRPPRLPRPRPRPKCTPRP — lower, -0.0595
- RRIRTRPPRLPRPRPRPMIGPRP — lower, -0.107
- RRIRMRPPRLPRPRPRPGQLPRP — lower, 0.0406
- RRIRYRPPRLPRPRPRPYFWPRP — lower, -1.4
- RRIRFRPPRLPRPRPRPTYWPRP — within 0.2 log units, 0.385
- RRIRPRPPRLPRPRPRPFAGPRP — lower, 0.0806
- RRIRERPPRLPRPRPRPTFCPRP — lower, -0.0701
- RRIRGRPPRLPRPRPRPHWIPRP — lower, -0.304
- RRIRCRPPRLPRPRPRPFQCPRP — lower, -0.296
- RRIRHRPPRLPRPRPRPTRPPRP — lower, 0.234
